Tested on: MS2 coat protein
Assay: apparent KD of MS2 coat protein; designed switch direction (-1 OFF switch, 1 ON switch): -1; higher = weaker reporter binding
Outline: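 Normalised cluster fluorescence was curve-fitted, and each design's median over clusters is its apparent KD. Before this, SNAP-549-labelled MS2 coat protein was titrated from 0.7 or 1.5 nM, doubling to 3 µM, over RNA switches transcribed on Illumina chips by stalled E. coli RNA polymerase. Titrations had no input, 200 uM small-molecule ligand, or an oligonucleotide input, and steps lasted 0.8–1.5 h (lowest) to 10–20 min (highest).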

[1] = input ligand: microRNA oligo, concentration not stated
[2] = Eterna round: R95, input ligand: microRNA oligo, concentration not stated
[3] = Eterna round: R95, input ligand: FMN 200 uM
[4] = Eterna round: R95, input ligand: none

Sequence | apparent KD of MS2 coat protein (input ligand: FMN 200 uM) | apparent KD of MS2 coat protein (input ligand: none) | apparent KD of MS2 coat protein [1] | apparent KD of MS2 coat protein [2] | apparent KD of MS2 coat protein [3] | apparent KD of MS2 coat protein [4]
AGAUCACAUGAGGAUCACCCAUGUCAGGAUAUCGACUGAUCAGCUUCGGCUGAUCAGUCGAGAAGGGACAAUUA [E1/1-A2] (Eterna round: R97, puzzle: Exclusion 1) | 511 nM | 280 nM |  |  |  | 
CCUCUUGGGCAAGGAUAUCCUGCGCGGUUCCGGUUCGUGUCUGUCACAUGAGGAUCACCCAUGUGGGAGAAGGUGCCUGCGGUC [Design 78] (Eterna round: R96, puzzle: Exclusion NG 2) |  |  | 12 nM |  |  | 
GUCCUCAUGACAUGAGGAUCACCCAUGUAUUAUUUGUUAACUGAGGAUAUACUCUUAAUGUUUAUGUAGAAGGCAGAUUCGGUC [JR_ExcNG3_Sub019] (Eterna round: R96, puzzle: Exclusion NG 3) | 51.6 nM | 40.7 nM | 37.8 nM |  |  | 
GGCUUGUAAGGAUAUGCGAAGGGAAGGAGAGGGACAGAGAAGCAGAAGGUACAUGAGGAUCACCCAUGUAAGGG [AK-MS2ROC-r4-exclusion4-7] (Eterna round: R97, puzzle: Exclusion 4) | 247 nM | 94.9 nM |  |  |  | 
GGUCAGAUGGUAGGAUAUCCAUAUCGAGUGACUCUUUCAUAACAUGAGGAUCACCCAUGUCGGUGGGAGAAGGGCCGUACGGCG [salish99_ExNG02_R04_016] (Eterna round: R96, puzzle: Exclusion NG 2) | 38.9 nM | 36.6 nM | 23.3 nM |  |  | 
AAUGGCUGAGGAUAUACACUCACGUCUAAAAGGUUCAAAUGACAUGAGGAUCACCCAUGUAGAAGGCAGCCCGA [Regeor] (puzzle: Exclusion 2) |  |  |  | 98.4 nM |  | 
AAAAAACAAGGAUAUACUAAAAAAAAAUGUGUUAAUUUUUCACAUGAGGAUCACCCAUGUAGAAGGUGUUAAAA [JR_Exclusion2_Sub006] (puzzle: Exclusion 2) |  |  |  | 79 nM | 54.7 nM | 93.6 nM
UUUUUCUCAGGAUAUACAUGAGGAUCACCCAUGUAUAUUAAAAAUAAUACAUGGGAAUGUAGAAGGGAGCUCAU [Omei Ex3 Pseudoloop 9] (Eterna round: R97, puzzle: Exclusion 3) | 141 nM | 161 nM |  |  |  | 
ACGCGAGUAGGAGGAUAUUCUGAGCGCGGGCCAGAAGAAGGCCUAGAUCGUGAACAUGAGGAUCACCCAUGUGGGAUGAUCUAA [Vevexeaus] (Eterna round: R96, puzzle: Exclusion NG 1) | 180 nM | 307 nM | 224 nM |  |  | 
CUGCUCCGUGUAGGAUAUGCGCGCAACCAACGCGCAGAAGGACAUGAGGAUCACCCAUGUAUGUUAUUAUCACGUGAGGCGCAA [Design 32] (Eterna round: R96, puzzle: Exclusion NG 1) | 25.7 nM | 18.5 nM | 13.8 nM |  |  | 
AACAGUCUGGAGGAUAUGCUGGAUUAAAAUCUGGCAGAAGGCUGGACAUGAGGAUCACCCAUGUAAAUACUACC [Omei Ex6 A2a] (Eterna round: R97, puzzle: Exclusion 6) | 73.1 nM | 24.8 nM |  |  |  | 
AGUAGUUGUUUCCGUUCUUACAUGAGGAUCACCCAUGUUUCUUGUCGUGCACGCGAUGCUCGUCAGACUACCAGAUG [salish99_TOv1_r3_058] (puzzle: Sensor v3, turn-off variant 1) |  |  |  | 69.9 nM | 52.5 nM | 61.9 nM
CAGUACUGAGGAUAUACAUGAGGAUCACCCAUGUGUUCCAGCUAGGAAACUAGCAAAGGUAGAAGGCAGUACUG [salish99_ex3_r3_065] (puzzle: Exclusion 3) |  |  |  | 23.9 nM | 587 nM | 23.3 nM
UCGGCGCGAGGAUAUGCGGCUGCUGCUUCGGGCCGUGGCGUACAUGAGGAUCACCCAUGUAGAAGGCGCGCCGC [Apr-15 SS2-40] (Eterna round: R96, puzzle: Exclusion 2) | 12.9 nM | 14.8 nM | 10.4 nM |  |  | 
GAUUAUGCGAGCUUUAGGGACAUGAGGAUCACCCAUGUUCGUCUUAUUGGUCUGGGUACGCUAACAUACCUAAAUCU [JMF 5] (puzzle: Sensor v3, turn-off variant 1) |  |  |  | 46.7 nM | 34.3 nM | 37.2 nM
GCCAGAGCAGGAUAUUCAGUAUCACACAUGAGGAUCACCCAUGUCUAUCGAAAGAUAGAGGGAGAAGGGCUCUGGC [Mat - Exclusion 5 - Eli mod - D95] (puzzle: Exclusion 5) |  |  |  | 105 nM | 28.4 nM | 118 nM
AGAUGGCGAGGAUAUACAUGAGGAUCACCCAUGUGAAGAUAAUAAGUGAGGAAGAAAAGUAGAAGGCGCUGUCA [Mat - Exclusion 3 - Mod of Salish D26] (puzzle: Exclusion 3) |  |  |  | 72.6 nM | 398 nM | 70.4 nM

Sequence | apparent KD of MS2 coat protein (input ligand: FMN 200 uM) | apparent KD of MS2 coat protein (input ligand: none) | apparent KD of MS2 coat protein [1] | apparent KD of MS2 coat protein [2] | apparent KD of MS2 coat protein [3] | apparent KD of MS2 coat protein [4]
CCGGAUAUGCAGGAUAUCGUAUCGGAUACGAUACGAGAAGGGUAUACAUGAGGAUCACCCAUGUGCCUUACCGG [Mat - Exclusion 6 - Eli Mod - D83] (puzzle: Exclusion 6) |  |  |  | 18 nM |  | 
GUGAAACAUGAGGAUCACCCAUGUGAGGAUAUGUUUUAGUACUGGAGACAGUACAUCUAUAGAAGGCACAAUGG [Mat - Mod of JL D75] (puzzle: Exclusion 1) |  |  |  | 54.7 nM |  | 
UAGAAACAUGAGGAUCACCCAUGUGAGGAUAUGAAAAAGAAAAGAAAAGAAAGAAGAAUCAGAAGGCACAAAGA [salish99-ex1_r3_083] (puzzle: Exclusion 1) |  |  |  | 25.9 nM | 33.6 nM | 23.6 nM
GUGCCGCGAGGAUAUACAGACGGGUCCAGGGCGUGUCUCGGACUUGAGGAUCACCCAAGUAGAAGGCGUCUCAG [salish99_ex2_r4_615] (Eterna round: R97, puzzle: Exclusion 2) | 77.6 nM | 26.7 nM |  |  |  | 
AGAUGGCGAGGAUAUACAUGAGGAUCACCCAUGUGAAGAAGAAGAGUGAGGAAGAAAAGUAGAAGGCGCUGUCA [Mat - Exclusion 3 - Mod of Salish D30] (puzzle: Exclusion 3) |  |  |  | 45.8 nM | 137 nM | 64.7 nM
ACAAGCUUUUGCUCGUCUUACAUGAGGAUCACCCAUGUCGGGAACAUGCAUACAUACAACAUAUAAACAGUAACAGA [high energy, high % A (36%)] (Eterna round: R97, puzzle: Sensor, turn-off variant 1) | 20.1 nM | 21.2 nM |  |  |  | 
GGCUAGUCAGGAUAUACGAACAUGUCAAAAGACGUGAAGGGACAUGAGGAUCACCCAUGUAGAAGGGACUAGCU [salish99_ex2_r3_003] (puzzle: Exclusion 2) |  |  |  | 27.9 nM |  | 
GGUUGCGCAGGAUAUACAUGAGGAUCACCCAUGUGAGAGAAAUAAGUGAGGAAGAAAAGUAGAAGGGCGUGACA [Mat - Exclusion 3 - Mod of Salish D75] (puzzle: Exclusion 3) |  |  |  | 45.3 nM | 175 nM | 58.9 nM
UUAUUGUGAGGAUAUCCAAUAUAUGACAUGAGGAUCACCCAUGUUUCCACUCGUACCUCCGGAGAAGGCACUUAUA [Ex5 #47] (Eterna round: R97, puzzle: Exclusion 5) | 28.6 nM | 32.3 nM |  |  |  | 
GAUCAUGCAGGAUAUACAUAAACCAUGAAAACAUGGCUCAAACAUGAGGAUCACCCAUGUAGAAGGGCAUGAUC [Omei Ex2 A19] (Eterna round: R97, puzzle: Exclusion 2) | 69.1 nM | 31.5 nM |  |  |  | 
CAGGAGUCACGAGGAUAUCUGGCUAAACGAACGAGAGAAGGUGUAGACUACCACAUGAGGAUCACCCAUGUUAUGACUAUACUA [Eternabot solution 30] (Eterna round: R96, puzzle: Exclusion NG 1) | 14.8 nM | 17.1 nM | 9.94 nM |  |  | 
AGAAAUGCCCAUGGCCGCAAGCUUCUUGCUUGUCUUACCACAUGAGGAUCACCCAUGUGACAUGGGCUCCUUAUAAU [Xeceenqu] (puzzle: Sensor v3, turn-off variant 2) |  |  |  | 9.59 nM | 12.5 nM | 11.3 nM
CAGUACUGAGGAUAUACAUGAGGAUCACCCAUGUGCUUUAGCUAGGAUACUAGCAUUAGUAGAAGGCAGUACUG [Fiskers Ex 3 828 mod 9] (puzzle: Exclusion 3) |  |  |  | 11.3 nM |  | 
AGUAUGUCAGGAUAUCUCGGGUAGCCCACAAGGACUACCGAAGAGAAGGGACAUGAGGAUCACCCAUGUACCAU [EX4 B.24] (Eterna round: R97, puzzle: Exclusion 4) | 19.9 nM | 21.4 nM |  |  |  | 
UAACUUCUAGUAAGGAUAUCGGUCCCAAGGGACAACGAGAAGGUACAUGAGGAUCACCCAUGUGAAAUAAGAAU [Mod of Zala 2 - Jieux - Brourd's Mod of Exclusion 4] (Eterna round: R97, puzzle: Brourd's mod of Exclusion 4) | 72.9 nM | 20.7 nM |  |  |  | 
AGCUCACAUGAGGAUCACCCAUGUCAGGAUAUCGACUGAACAGCUUCGGCUGUUCAGUCGAGAAGGGACAAUUA [Brourdxlusion 5 - Jieux - Exclusion 1] (Eterna round: R97, puzzle: Exclusion 1) | 182 nM | 59.7 nM |  |  |  | 
AAUUUACAUGAGGAUCACCCAUGUGAGGAUAUGAUACUAUGUACUUCGGUACAUAGUAUCAGAAGGCAUGUGAA [Ex1-3: 92] (puzzle: Exclusion 1) |  |  |  | 133 nM |  | 
